Among the data in patent US7423021 are Ki and inhibition of the amidase activity of thrombin values, retold here.

One test has as its target human thrombin (human) (UniProt P00734). Kind of test: competitive inhibition of human thrombin hydrolysis of the fluorogenic substrate Tos-Gly-Pro-Arg-AMC, Hanes analysis.
Regarding “Tranexamic acid-D-Cha-L-Aze-D-Try-L-Har amide (peptide)”, the Ki came out at 7 nM.
As to “Trans-4-(guanidinomethyl)cyclohexanecarboxylic acid-D-Cha-L-Aze-D-Try-L-Har amide (peptide)”, the Ki turned out to be 3 nM.

The target is the same in another test. Kind of test: cell-based or functional assay.
“N-acetyl-L-Ala-D-Cha-L-Pro-D-Tyr-L-Har amide (peptide)”: the inhibition of the amidase activity of thrombin at 1 µM peptide worked out at 56%.
Same read-out and setting: to “N-acetyl-L-Tyr-L-Cit-L-Cha-D-Pro-D-Tyr-L-Arg amide (peptide)” belongs 55%; to “N-acetyl-D-Lys-L-Nle-L-Cha-D-Pro-D-Tyr-L-Arg amide (peptide)”, 48%.
For the substance “N-acetyl-L-Nhm-D-Cha-L-Aze-D-Tyr-L-Har amide (peptide)”, the inhibition of the amidase activity of thrombin at 250 nM peptide amounted to 80%.
The same measure, in the same setting: for “N-acetyl-L-Cha-D-Cha-L-Aze-D-Tyr-L-Har amide (peptide)” the value was 90%; for “N-acetyl-L-Iq3-D-Cha-L-Aze-D-Tyr-L-Har amide (peptide)”, 72%.
Regarding “N-acetyl-D-Tyr-L-Cha-D-Pro-D-Tyr-L-Arg amide (peptide)”, the inhibition of the amidase activity of thrombin at 1 µM peptide is 47%.
On the same count and under the same terms, to “N-acetyl-L-Trp-L-Cha-D-Pro-D-Tyr-L-Arg amide (peptide)” belongs 63%.
In turn, “N-acetyl-L-Dcp-D-Cha-L-Aze-D-Tyr-L-Har amide (peptide)” displayed an inhibition of the amidase activity of thrombin at 250 nM peptide of 75%.
For the substance “N-acetyl-L-Ala-L-Cha-D-Pro-D-Tyr-L-Arg amide (peptide)”, the inhibition of the amidase activity of thrombin at 1 µM peptide was determined as 44%.
Still for that read-out and setting: for “N-acetyl-L-Ala-D-Cha-L-Aze-D-Tyr-L-Arg amide (peptide)” the value was 63%.
For “N-acetyl-L-Trp-D-Cha-L-Aze-D-Tyr-L-Har amide (peptide)”, the inhibition of the amidase activity of thrombin at 250 nM peptide stood at 76%.
For “N-acetyl-D-Val-D-His-L-Cha-D-Pro-D-Tyr-L-Arg amide (peptide)”, the inhibition of the amidase activity of thrombin at 1 µM peptide was found to be 51%.
The same measure, in the same setting: to “N-acetyl-D-Glu-L-Cha-D-Pro-D-Tyr-L-Arg amide (peptide)” belongs 58%; to “N-acetyl-L-Tyr-D-Pro-L-Cha-D-Pro-D-Tyr-L-Arg amide (peptide)”, 44%; to “N-acetyl-L-Ser-L-Ser-L-Cha-D-Pro-D-Tyr-L-Arg amide (peptide)”, 40%.
As for “N-acetyl-L-Ala-D-Cha-L-Aze-D-Tyr-L-Har amide (peptide)”, the inhibition of the amidase activity of thrombin at 250 nM peptide was 77%.
On to “N-acetyl-L-Ser-L-Arg-L-Cha-D-Pro-D-Tyr-L-Arg amide (peptide)”, for which the inhibition of the amidase activity of thrombin at 1 µM peptide turned out to be 51%.
“N-acetyl-L-Phg-D-Cha-L-Aze-D-Tyr-L-Har amide (peptide)”: the inhibition of the amidase activity of thrombin at 250 nM peptide was found to be 95%.
“N-acetyl-D-Gln-D-His-L-Cha-D-Pro-D-Tyr-L-Arg amide (peptide)”: the inhibition of the amidase activity of thrombin at 1 µM peptide came to 59%.
For “N-acetyl-D-Phe-D-Cha-L-Aze-D-Tyr-L-Har amide (peptide)”, the inhibition of the amidase activity of thrombin at 250 nM peptide amounted to 77%.
The same measure, in the same setting: for “N-acetyl-L-Pnp-D-Cha-L-Aze-D-Tyr-L-Har amide (peptide)” the value was 72%; for “N-acetyl-L-Ppd-D-Cha-L-Aze-D-Tyr-L-Har amide (peptide)”, 76%.
The substance “N-acetyl-L-Arg-L-Cha-D-Pro-D-Tyr-L-Arg amide (peptide)” displayed an inhibition of the amidase activity of thrombin at 1 µM peptide of 47%.
Still for that read-out and setting: to “N-acetyl-L-Ile-L-Arg-L-Cha-D-Pro-D-Tyr-L-Arg amide (peptide)” belongs 61%; to “N-acetyl-L-Ser-L-Ala-L-Cha-D-Pro-D-Tyr-L-Arg amide (peptide)”, 47%.
Consider “N-acetyl-L-Tea-D-Cha-L-Aze-D-Tyr-L-Har amide (peptide)”, for which the inhibition of the amidase activity of thrombin at 250 nM peptide came to 74%.
As to “N-acetyl-D-Val-L-Cha-D-Pro-D-Tyr-L-Arg amide (peptide)”, the inhibition of the amidase activity of thrombin at 1 µM peptide came out at 45%.
The substance “N-acetyl-L-Nle-D-Cha-L-Aze-D-Tyr-L-Har amide (peptide)” gave an inhibition of the amidase activity of thrombin at 250 nM peptide of 89%.

Broadly, the Ki is the dissociation constant of the complex between target and ligand, obtained from inhibition or displacement. Read a high Ki as lower affinity.
